According to the RNAGym collection of RNA variant scans (doi:10.7554/elife.90254):

B1: LINE1-full (parent)
chain: UACGUAGGUGGUUUUCCCCUGAUAGUGCUAAGGGGGCCUGGAAGUUUGGACUGGGCAGAGCUCAACACAGCGUGGCAAAGUGGCUGUGGCUAGACUGCCUCUCUGGAUUCCUCGUCACUCAGCAGGGCAUCUCUGAGAGAAAUGCC

Variants of: B1
Assay: self-cleavage, relative activity (ratio to wild type); higher = more cleavage; in vitro, sequencing; the parent is a self-cleaving ribozyme

Variant | self-cleavage
UACGUAGGUGGUUUUCCCCUGAUAGCGCUAAGGGGGCCUGGAAGUUUGGACUGGGCAGAGCUCAACACAGCGUGGCAAAGUGGCUGUGGCUAGACUGCCUCUCUGGAUUCCUCGUCGCUCAGCAGGGCAUCUCUGAGAGAAAUGCC [U26C A117G] | 1.51
UACGUAGGUGGUUUUCCCCUGAUAGUGCUAAGUGGGCCUGGAAGUUUGGACUGGGCAGAGCCCAACACAGCGUGGCAAAGUGGCUGUGGCUAGACUGCCUCUCUGGAUUCCUCGUCACUCAGCAGGGCAUCUCUGAGAGAAAUGCC [G33U U62C] | 0.04
UACGUAGGUGGUUUUCCCCUGAUAGUGCUAAGGGGGCCUGGAAGUUUGGAUUGGGCAGAGCUCAACACAGCGUGGCAAAGUGGCUGUGGCUAGACUGCCUCUCUGGAUUCCUCGUCACUCAGCAGGGCAUCUCUGGGAGAAAUGCC [C51U A136G] | 1.34
UACGUAGGUGGUUUUCCCCUGAUAGUGCUAAGGGGGCCUGGAAGUUUGGACUGGGCAGAGCUCAACACAGCGUGGCAAAGUGGCUGUGGCUAGACUGCCUCACUGGAUUCCUCGUCACUCAGCAGGGCAUCUCUGAGAGGAAUGCC [U102A A140G] | 1.62
UACGUAGGUGGUUUUCCCCUGAUAGUGCUAAGGGGGCCUGGAAGUUUGGACUGGGCAGAGCUCAACACAGCGUGGCAAAGUGGCUGUGGCUAGACUGCCUCUCUGGAUUCCUCGUCACUCAACAGGGCAUCUCUGAGGGAAAUGCC [G122A A138G] | 0.78
UACGUAGGUGGUUUUCCCCUGAUAGUGCUAAGGUGGCCUGGUAGUUUGGACUGGGCAGAGCUCAACACAGCGUGGCAAAGUGGCUGUGGCUAGACUGCCUCUCUGGAUUCCUCGUCACUCAGCAGGGCAUCUCUGAGAGAAAUGCC [G34U A42U] | 1.15
UACGUAGGUGGUUUUCCCCUGAUAGUGCUAAGGGGGCCUGGAAGUUUGGACUGGGCAGAGCUCAACACAGCGUGGCAAAGUGGCUGUGGCUAGACUGCCUCUCUGGAUUCCUCGUCACUCAGCAGGGCAUCUCUGAGAGAAUAGCC [A142U U143A] | 1.13
UACGUAGGUGGUUUUCCCCUGAUAGUGCUAAGGGGGCCUGGAAGUUUGGACUGGGCAGAGUUCAGCACAGCGUGGCAAAGUGGCUGUGGCUAGACUGCCUCUCUGGAUUCCUCGUCACUCAGCAGGGCAUCUCUGAGAGAAAUGCC [C61U A65G] | 0.06
UACGUAGGUGGUUUUCCCCUGAUAGUGCUAAGGGGGCCUGGAAGUUUGGACUGGGCGGAGCUCAUCACAGCGUGGCAAAGUGGCUGUGGCUAGACUGCCUCUCUGGAUUCCUCGUCACUCAGCAGGGCAUCUCUGAGAGAAAUGCC [A57G A65U] | 0.15
UACGUAGGUGGUUUUCCCCUGAUAGUGCUAAGGGGCCCUGGAAGUUUGGACUGGGCAGAGCUCAACACAGCGUGGCAAAGUUGCUGUGGCUAGACUGCCUCUCUGGAUUCCUCGUCACUCAGCAGGGCAUCUCUGAGAGAAAUGCC [G36C G82U] | 1.65
UACGUAGGUGGUUUUCCCCUGAUAGUGCUAAGGAGGCCUGGAAGUAUGGACUGGGCAGAGCUCAACACAGCGUGGCAAAGUGGCUGUGGCUAGACUGCCUCUCUGGAUUCCUCGUCACUCAGCAGGGCAUCUCUGAGAGAAAUGCC [G34A U46A] | 1.2
UACGUAGGUGGUUUUCCCCUGAUAGUGCUAAGGGGGCCUGGAAGCCUGGACUGGGCAGAGCUCAACACAGCGUGGCAAAGUGGCUGUGGCUAGACUGCCUCUCUGGAUUCCUCGUCACUCAGCAGGGCAUCUCUGAGAGAAAUGCC [U45C U46C] | 1.84
UACGUAGGUGGUUUUCCCCUGAUAGUGCUAAGGGGGCCUGGAAGUUUGGACUGGGCAGAGCUCGACACAGCGUGGCAAAGUGGCUGUGGCUAGACUGCCUCUCUGGAUUCCUCGUCACUCAGCAAGGCAUCUCUGAGAGAAAUGCC [A64G G125A] | 0.31
UACGUAGGUGGUUUUCCCCUGAUAGUGCUAAGGGGGCCUGGAAGUUUGGACUGGGCAGAGCUCAACACAGCGUGGCAAAGUGGCUGUGGCUAGACUGCCUCUCUGGAUUCCUCGUCACUCAGCUGGGCAUCUCCGAGAGAAAUGCC [A124U U134C] | 1.51
UACGUAGGUGGUUUUCCCCUGAUAGUGCUGAGGGGGCCUGGAAGUUUGGACUGGGCAGAGCUCAACACAGCGUGGCAAAGUGGCUGUGGCUAGACUGCAUCUCUGGAUUCCUCGUCACUCAGCAGGGCAUCUCUGAGAGAAAUGCC [A30G C99A] | 0.61
UACGCAGGUGGUUUUCCCCUGAUAGUGCUAAGGGGGCCUGGAAGUUUGGACUGGGCAGAGCUCAACACAGCGUGGCAAAGUGGCUGUGGCUAGACUGCCUCUCUGGAUUACUCGUCACUCAGCAGGGCAUCUCUGAGAGAAAUGCC [U5C C110A] | 1.19
UACGUAGGUGGUUUUCCCCUGAUAGUGCUAAGGGGGUCUGGAAGUUUGGACUGGGCAGAGCUCAACACAGCGUGGCAAAGUGGCUGUGGCUAGACUGCCUCUCUGGAUUCCUCGUCACUCAGCAGGGAAUCUCUGAGAGAAAUGCC [C37U C128A] | 1.23
UACGUAGGUGGUUUUCCCCUGAGAGUGCUAAGGGGGCCUGGAAGUUUGGACUGGGCAGAGCUCAACACAGCGUGGCAAAGUGGCUGUGGCUAGACUGCCUCCCUGGAUUCCUCGUCACUCAGCAGGGCAUCUCUGAGAGAAAUGCC [U23G U102C] | 1.02
UACGUAGGUGGUUUUCCCCUGAUAGUGCUAAGGGGGCCUGGAAGUUUGGACUGGGCAGAGCUCAACACAGCGUGGCAAAGUGGCUGUGGCUAGACUGCCUCUCUGGAUUCCUCGUCACUCAGCGGGGCAUCUCUGAGAGAACUGCC [A124G A142C] | 0.58
UACGUAGGUGGUUUUCCCCCGAUAGUGCUAAGGGGGCCUGGAAGUUUGGACUGGGCAGAGCUCAACUCAGCGUGGCAAAGUGGCUGUGGCUAGACUGCCUCUCUGGAUUCCUCGUCACUCAGCAGGGCAUCUCUGAGAGAAAUGCC [U20C A67U] | 0.15
